From patent US20260234738A1

Target: SARS-CoV-2 spike protein variant Y483A on VSV pseudoparticles (SARS-CoV-2) (UniProt P0DTC2)
Assay: cell-based or functional assay

For mAb10987 (antibody), the Relative neutralization at 5 µg/ml was 99%.
